The results in this text go back to publication PMC4989169.

One may read the Ki as the dissociation constant of the complex between target and ligand, obtained from inhibition or displacement. As usually defined, the Kd is a measure of binding affinity in units of concentration. High values mean lower affinity, low ones higher affinity. The koff is the first-order rate constant of dissociation. Higher therefore signals fast dissociation. As a reminder, the kon is a measure of how fast the partners come together. Higher therefore signals faster complex formation.

Test [1] has as its target active MASP-3cf (catalytic fragment of active MASP-3 containing the CCP1-CCP2-SP domains) (human) (UniProt P48740). Briefly: enzyme inhibition assay (equilibrium KI from residual activity, photometric); Ca2+-free buffer: 20 mM HEPES, 150 mM NaCl, 0.1 mM EDTA, 0.05% Triton-X100, pH 7.4.
For test [2] the target is unchanged. Briefly: enzyme inhibition assay (equilibrium KI from residual activity, photometric); enzymes co-incubated with serial dilutions of the inhibitors for 2 h at room temperature; 20 mM HEPES, 145 mM NaCl, 5 mM CaCl2, 0.05% Triton X-100, pH 7.5; Z-Lys-SBzl substrate, read at 410 nm.
The target of test [3] is active MASP-2cf (human). The test is described as above.
The target of test [4] is TFMI-3_HA (human) (UniProt P10646). Briefly: SPR; ProteOn XPR36, GLM chip; TFMI-3_HA captured on immobilised anti-HA antibody (50-80 RU), MASP-3cf injected; 20 mM HEPES, 150 mM NaCl, 5 mM CaCl2, 0.05% Triton X-100, pH 7.4; 1:1 Langmuir model. For orientation: In SPR one partner is held on a chip, and binding of the other changes the refractive index at the surface.

Consider “TFPI-based MASP-3 Inhibitor (TFMI-3) (from UniProt P10646 121-178) (designed binder)”, for which the Ki in test [1] is 9.9 nM; in test [2] it was 11.1 nM; in test [3], 75000 nM.

B1: active MASP-3cf (catalytic fragment of active MASP-3 containing the CCP1-CCP2-SP domains) (enzyme)
chain: IIGGRNAEPGLFPWQALIVVEDTSRVPNDKWFGSGALLSASWILTAAHVLRSQRRDTTVIPVSKEHVTVYLGLHDVRDKSGAVNSSAARVVLHPDFNIQNYNHDIALVQLQEPVPLGPHVMPVCLPRLEPEGPAPHMLGLVAGWGISNPNVTVDEIISSGTRTLSDVLQYVKLPVVPHAECKTSYESRSGNYSVTENMFCAGYYEGGKDTCLGDSGGAFVIFDDLSQRWVVQGLVSWGGPEECGSKQVYGVYTKVSNYVDWVWEQMGLPQSVVEPQVER
As to B1, in test [4], the Kd is 17.7 nM, the koff amounted to 0.00093 s⁻¹ and the kon was found to be 52500 M⁻¹ s⁻¹.
